In patent US20140193915, “COMPOSITIONS AND METHODS FOR CUSTOM SITE-SPECIFIC DNA RECOMBINASES” (Monsanto Technology, LLC, published 2014) one finds activity data, which are given here for one molecule.

One series addresses T1, sN-TALER V.2 (synthetic).
T1 chain: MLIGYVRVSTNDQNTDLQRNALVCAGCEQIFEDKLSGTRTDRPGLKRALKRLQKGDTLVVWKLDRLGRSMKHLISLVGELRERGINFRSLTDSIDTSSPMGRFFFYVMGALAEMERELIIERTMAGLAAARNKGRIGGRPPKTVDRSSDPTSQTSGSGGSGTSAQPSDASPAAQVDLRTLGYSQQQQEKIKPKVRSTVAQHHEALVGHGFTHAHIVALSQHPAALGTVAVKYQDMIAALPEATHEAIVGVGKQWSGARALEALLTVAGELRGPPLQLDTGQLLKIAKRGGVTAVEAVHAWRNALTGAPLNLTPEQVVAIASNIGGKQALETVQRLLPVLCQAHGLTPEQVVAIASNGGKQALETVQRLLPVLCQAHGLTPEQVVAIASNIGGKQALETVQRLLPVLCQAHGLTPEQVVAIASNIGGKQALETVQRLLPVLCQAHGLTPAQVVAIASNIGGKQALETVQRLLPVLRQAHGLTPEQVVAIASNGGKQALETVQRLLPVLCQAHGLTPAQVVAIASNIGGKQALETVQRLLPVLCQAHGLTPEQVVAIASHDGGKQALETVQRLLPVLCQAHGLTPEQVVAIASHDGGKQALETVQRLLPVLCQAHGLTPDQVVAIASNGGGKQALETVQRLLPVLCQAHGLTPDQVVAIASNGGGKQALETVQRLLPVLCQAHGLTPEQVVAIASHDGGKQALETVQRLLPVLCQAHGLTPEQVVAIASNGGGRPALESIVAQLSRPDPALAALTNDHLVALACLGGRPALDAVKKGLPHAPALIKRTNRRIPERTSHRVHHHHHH
In words: cell_activity; E. coli. As to the method: (§1) The co-transformed bacteria were plated on media with chloramphenicol, kanamycin, and X-gal then incubated at 37° C. for 18 to 36 hours. Control samples consisted of transformations using the reporter construct alone. Control transformants were similarly plated. The bacterial transformation protocol was either heat shock or electroporation per standard molecular biology techniques.
(§2) For each of these N-TALER chimera expression constructs, from one to three independent clones were selected for plasmid purification. These N-TALER chimera expression constructs were co-transformed with five of the N-TALER reporter constructs, as indicated in Table 15. […] In contrast to the result for pN-TALER N4.2.2, the chimera sN-TALER N4.2.2, with the same truncation point but a specific recombinase catalytic domain, reporters with 20, 24, or 40 bp of TALER central sequence length were efficiently recombined (score of 1) while reporters with 30 or 50 bp of TALER central sequence length were not recombined (score of 5). For the chimera sN-TALER N4.2, reporters with 20, 24, or 40 bp of TALER central sequence length were efficiently recombined (score of 1); the reporter with 30 bp of TALER central sequence length was poorly recombined (score of 3); and the reporter with 50 bp of TALER central sequence length was not recombined (score of 5). For the chimera pN-TALER N4.2, the recombination efficiency on the reporters tested varied from intermediate (scores of 3 and 4) to none (score of 5). […] In contrast to the result for sN-TALER N3.2, the chimera pN-TALER N3.2, with the same truncation point but a permissive recombinase catalytic domain, recombination efficiency on the reporters tested varied from efficient (scores of 1.5, 2, and 3) to none (score of 5). For both chimeras sN-TALER V.2 and pN-TALER V.2, there was efficient recombination (scores of 1, 1.5, and 2) of the 5 N-TALER reporter constructs tested.

The target of the next series is T2, sN-TALER N4.2 (synthetic).
T2 chain: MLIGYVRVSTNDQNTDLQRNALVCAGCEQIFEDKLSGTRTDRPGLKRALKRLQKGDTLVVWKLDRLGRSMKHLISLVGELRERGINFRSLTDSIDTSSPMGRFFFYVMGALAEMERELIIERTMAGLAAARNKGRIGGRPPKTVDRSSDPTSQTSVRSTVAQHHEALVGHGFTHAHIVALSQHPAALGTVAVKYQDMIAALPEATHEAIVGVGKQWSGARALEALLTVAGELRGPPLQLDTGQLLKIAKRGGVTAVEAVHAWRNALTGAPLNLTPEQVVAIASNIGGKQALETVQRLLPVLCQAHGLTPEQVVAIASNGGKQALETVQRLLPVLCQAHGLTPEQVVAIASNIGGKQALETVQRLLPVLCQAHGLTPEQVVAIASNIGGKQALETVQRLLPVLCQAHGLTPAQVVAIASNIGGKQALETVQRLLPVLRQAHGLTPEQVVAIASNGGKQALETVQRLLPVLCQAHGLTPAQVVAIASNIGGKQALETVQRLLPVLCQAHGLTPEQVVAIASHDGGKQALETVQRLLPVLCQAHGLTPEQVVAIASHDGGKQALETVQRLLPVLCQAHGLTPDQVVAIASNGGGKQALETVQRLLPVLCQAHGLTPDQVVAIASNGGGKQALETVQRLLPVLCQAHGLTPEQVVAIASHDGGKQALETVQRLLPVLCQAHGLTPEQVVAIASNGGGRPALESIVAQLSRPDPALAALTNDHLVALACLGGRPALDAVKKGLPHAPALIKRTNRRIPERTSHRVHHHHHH
In words: cell_activity; E. coli. As to the method: as §1, §2

Positions count from the first letter of the chain named.

B1: Gin18TALE+1 (dsDNA)
DNA 1: AGAAGGTATTTATATCCAAAACCATGGTTTACAATATAAATACCTTCT
DNA 2: B1 DNA 1 with C16T, C17G, A18T, A31T, C32G, A33G
As to B1, the activity with sN-TALER V.2 and in the series with sN-TALER N4.2 was 1 score throughout.
